B1: EHMT1 (parent)
chain: SARQGELQKVLLMLVDGIDPNFKM
B2: TMEM175 (parent)
chain: QTSAFARQPRDELERVRVSCTIIF

Variants of: B1
Assay: protein stability index of a GFP-peptide fusion (GPS, HEK-293T) (PSI 1-6); higher = more stable
Settings: c terminus: a fixed tail appended
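Also: lentivirally expressed fusions sorted by FACS into six bins by GFP to DsRed ratio, PSI derived from sequencing read proportions per bin multiplied by bin number.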

Compared with SARQGELQKVLLMLVDGIDPNFLM, SARQGELQKVLLMLVDGIDPNFEM is lower in protein stability index: 1.88 for the first, 1.21 for the second.

Compared with SARQGELQKVLLMLVDGIDPNFNM, SARQGELQKVLLMLVDGIDPNFHM is higher in protein stability index: 1.3 for the first, 2.78 for the second.

Going from SARQGELQKVLLMLVDGIDPNFQM to SARQGELQKVLLMLVDGIDPNFVM, the protein stability index rises from 2.39 to 2.81.

Going from SARQGELQKVLLMLVDGIDPNFYM to SARQGELQKVLLMLVDGIDPNFIM, the protein stability index falls from 1.94 to 1.59.

First: SARQGELQKVLLMLVDGIDPNFGM
Second: SARQGELQKVLLMLVDGIDPNFPM
The protein stability index of the first is lower: 1.19 for the first, 2.18 for the second.

Compared with SARQGELQKVLLMLVDGIDPNFTM, SARQGELQKVLLMLVDGIDPNFRM is higher in protein stability index: 2.02 for the first, 2.82 for the second.

Compared with SARQGELQKVLLMLVDGIDPNFKK, SARQGELQKVLLMLVDGIDPNFKG is lower in protein stability index: 2.42 for the first, 1.23 for the second.

First: SARQGELQKVLLMLVDGIDPNFKP
Second: SARQGELQKVLLMLVDGIDPNFKR
The protein stability index of the first is higher: 2.6 for the first, 1.8 for the second.

Compared with SARQGELQKVLLMLVDGIDPNFKD, SARQGELQKVLLMLVDGIDPNFKH is lower in protein stability index: 3.33 for the first, 1.19 for the second.

Going from SARQGELQKVLLMLVDGIDPNFKI to SARQGELQKVLLMLVDGIDPNFKA, the protein stability index rises from 1.77 to 2.04.

Going from SARQGELQKVLLMLVDGIDPNFKT to SARQGELQKVLLMLVDGIDPNFKY, the protein stability index rises from 1.42 to 1.9.

First: SARQGELQKVLLMLVDGIDPNFKL
Second: SARQGELQKVLLMLVDGIDPNFKN
The protein stability index of the first is higher: 1.93 for the first, 1.48 for the second.

First: SARQGELQKVLLMLVDGIDPNFKE
Second: SARQGELQKVLLMLVDGIDPNFKC
The protein stability index of the first is higher: 2.18 for the first, 2.05 for the second.

With SARQGELQKVLLMLVDGIDPNFKQ the protein stability index was 1.84.

Variants of: B2
Assay: as above
Settings: c terminus: a fixed tail appended

Going from QTWAFARQPRDELERVRVSCTIIF to QTYAFARQPRDELERVRVSCTIIF, the protein stability index rises from 2.24 to 2.69.

First: QTRAFARQPRDELERVRVSCTIIF
Second: QTGAFARQPRDELERVRVSCTIIF
The protein stability index of the first is lower: 1.06 for the first, 1.91 for the second.

Going from QTIAFARQPRDELERVRVSCTIIF to QTAAFARQPRDELERVRVSCTIIF, the protein stability index rises from 2.13 to 3.58.

First: QTFAFARQPRDELERVRVSCTIIF
Second: QTMAFARQPRDELERVRVSCTIIF
The protein stability index of the first is lower: 2.04 for the first, 3.41 for the second.

Going from QTNAFARQPRDELERVRVSCTIIF to QTQAFARQPRDELERVRVSCTIIF, the protein stability index rises from 2.02 to 2.21.

Compared with QTHAFARQPRDELERVRVSCTIIF, QTLAFARQPRDELERVRVSCTIIF is lower in protein stability index: 1.69 for the first, 1.05 for the second.

Compared with QTKAFARQPRDELERVRVSCTIIF, QTEAFARQPRDELERVRVSCTIIF is lower in protein stability index: 2.62 for the first, 2.02 for the second.

First: QSSAFARQPRDELERVRVSCTIIF
Second: QYSAFARQPRDELERVRVSCTIIF
The protein stability index of the first is higher: 3.61 for the first, 3.16 for the second.

First: QMSAFARQPRDELERVRVSCTIIF
Second: QDSAFARQPRDELERVRVSCTIIF
The protein stability index of the first is lower: 1.89 for the first, 3.37 for the second.

Going from QHSAFARQPRDELERVRVSCTIIF to QLSAFARQPRDELERVRVSCTIIF, the protein stability index falls from 2.22 to 1.55.

Going from QNSAFARQPRDELERVRVSCTIIF to QFSAFARQPRDELERVRVSCTIIF, the protein stability index rises from 1.66 to 2.49.

First: QASAFARQPRDELERVRVSCTIIF
Second: QQSAFARQPRDELERVRVSCTIIF
The protein stability index of the first is lower: 1.83 for the first, 4.14 for the second.

First: QWSAFARQPRDELERVRVSCTIIF
Second: QTSAFARCPRDELERVRVSCTIIF
The protein stability index of the first is lower: 3.26 for the first, 3.32 for the second.

First: QTSAFARAPRDELERVRVSCTIIF
Second: QTSAFARRPRDELERVRVSCTIIF
The protein stability index of the first is lower: 1.48 for the first, 3.17 for the second.

First: QTSAFARPPRDELERVRVSCTIIF
Second: QTSAFARDPRDELERVRVSCTIIF
The protein stability index of the first is lower: 2.1 for the first, 2.12 for the second.

Going from QTSAFARVPRDELERVRVSCTIIF to QTSAFARMPRDELERVRVSCTIIF, the protein stability index rises from 1.56 to 3.58.

First: QTSAFARIPRDELERVRVSCTIIF
Second: QTSAFARLPRDELERVRVSCTIIF
The protein stability index of the first is higher: 2.01 for the first, 1.87 for the second.

First: QTSAFARTPRDELERVRVSCTIIF
Second: QTSAFARHPRDELERVRVSCTIIF
The protein stability index of the first is lower: 2 for the first, 2.68 for the second.

First: QTSAFARWPRDELERVRVSCTIIF
Second: QTSAFARGPRDELERVRVSCTIIF
The protein stability index of the first is lower: 2.58 for the first, 4.14 for the second.

Compared with QTSAFARYPRDELERVRVSCTIIF, QTSAAARQPRDELERVRVSCTIIF is lower in protein stability index: 2.14 for the first, 1.75 for the second.

Going from QTSAMARQPRDELERVRVSCTIIF to QTSARARQPRDELERVRVSCTIIF, the protein stability index falls from 2.25 to 1.38.

First: QTSADARQPRDELERVRVSCTIIF
Second: QTSAQARQPRDELERVRVSCTIIF
The protein stability index of the first is lower: 1.69 for the first, 2.27 for the second.

Compared with QTSAVARQPRDELERVRVSCTIIF, QTSATARQPRDELERVRVSCTIIF is lower in protein stability index: 2.15 for the first, 2.01 for the second.

First: QTSAHARQPRDELERVRVSCTIIF
Second: QTSAKARQPRDELERVRVSCTIIF
The protein stability index of the first is higher: 1.48 for the first, 1.34 for the second.

Going from QTSAEARQPRDELERVRVSCTIIF to QTSAPARQPRDELERVRVSCTIIF, the protein stability index rises from 1.91 to 2.48.

Compared with QTSANARQPRDELERVRVSCTIIF, QTSACARQPRDELERVRVSCTIIF is higher in protein stability index: 1.65 for the first, 4.13 for the second.

First: QTSAIARQPRDELERVRVSCTIIF
Second: QTSASARQPRDELERVRVSCTIIF
The protein stability index of the first is lower: 1.72 for the first, 1.94 for the second.

Going from QTSALARQPRDELERVRVSCTIIF to QTSAYARQPRDELERVRVSCTIIF, the protein stability index rises from 1.9 to 2.54.

Compared with PTSAFARQPRDELERVRVSCTIIF, ATSAFARQPRDELERVRVSCTIIF is higher in protein stability index: 2.32 for the first, 3.97 for the second.

First: HTSAFARQPRDELERVRVSCTIIF
Second: ETSAFARQPRDELERVRVSCTIIF
The protein stability index of the first is lower: 1.6 for the first, 2.25 for the second.

Going from LTSAFARQPRDELERVRVSCTIIF to DTSAFARQPRDELERVRVSCTIIF, the protein stability index rises from 1.38 to 1.63.

Compared with GTSAFARQPRDELERVRVSCTIIF, YTSAFARQPRDELERVRVSCTIIF is lower in protein stability index: 3.41 for the first, 3.11 for the second.

Going from KTSAFARQPRDELERVRVSCTIIF to STSAFARQPRDELERVRVSCTIIF, the protein stability index falls from 2.24 to 2.17.

FTSAFARQPRDELERVRVSCTIIF gave a protein stability index of 3.36.

— the supplement of paper PMC10567573
